Paper PMC13038415 (Nature Chemical Biology, 2026)
Where “and” joins values, the source holds several entries; their conditions need not be identical. Identical values can stand only once. Like-named read-outs stand apart in the source and are kept apart here.

B1: Pac1 (full-length; yeast homolog of Lis1) (natural protein)
chain: MTNWQQQLPLTDTQKNELDKSVLRYLNWNYKQTVRHEHAQDYESVRHAIVTLSGFLLQESVDRQEFISNNDTSNESMVDIDELLLPKKWNSIVRLQKKIIELEQNTETLVSQIKDLNTQVSELAQFKPTTSNGTSAHNVLKWIPRNLPSCLINVESSVTSVKLHPNLPIVFVATDHGKLYAFDLFNYTIPLASLQSHTKAITSMDVLFTNYTNSSKKNYLVIVTASKDLQIHVFKWVSEECKFQQIRSLLGHEHIVSAVKIWQKNNDVHIASCSRDQTVKIWDFHNGWSLKTFQPHSQWVRSIDVLGDYIISGSHDTTLRLTHWPSGNGLSVGTGHEFPIEKVKFIHFIEDSPEIRFRTPSTDRYKNWGMQYCVSASRDRTIKIWEIPLPTLMAHRAPIPNPTDSNFRCVLTLKGHLSWVRDISIRGQYLFSCADDKSVRCWDLNTGQCLHVWEKLHTGFVNCLDLDVDFDSNVTPRQMMVTGGLDCKSNVFMR
B2: Pac1 site^linker mutant (T403A, S405A, N406A, R320A, V332A) (natural protein)
chain: MTNWQQQLPLTDTQKNELDKSVLRYLNWNYKQTVRHEHAQDYESVRHAIVTLSGFLLQESVDRQEFISNNDTSNESMVDIDELLLPKKWNSIVRLQKKIIELEQNTETLVSQIKDLNTQVSELAQFKPTTSNGTSAHNVLKWIPRNLPSCLINVESSVTSVKLHPNLPIVFVATDHGKLYAFDLFNYTIPLASLQSHTKAITSMDVLFTNYTNSSKKNYLVIVTASKDLQIHVFKWVSEECKFQQIRSLLGHEHIVSAVKIWQKNNDVHIASCSRDQTVKIWDFHNGWSLKTFQPHSQWVRSIDVLGDYIISGSHDTTLALTHWPSGNGLSAGTGHEFPIEKVKFIHFIEDSPEIRFRTPSTDRYKNWGMQYCVSASRDRTIKIWEIPLPTLMAHRAPIPNPADAAFRCVLTLKGHLSWVRDISIRGQYLFSCADDKSVRCWDLNTGQCLHVWEKLHTGFVNCLDLDVDFDSNVTPRQMMVTGGLDCKSNVFMR

Tests used:
Test in all cases: mass photometry
[1] = target: T1, full-length dynein complex AAA3^WA (dynein-K2424A) (yeast, UniProt P36022 1-4092; P40960 1-533; Q04949 1-312; Q02647 1-92, K2424A)
T1 sequence (P36022 whole entry K2424A, chain 1 of 4): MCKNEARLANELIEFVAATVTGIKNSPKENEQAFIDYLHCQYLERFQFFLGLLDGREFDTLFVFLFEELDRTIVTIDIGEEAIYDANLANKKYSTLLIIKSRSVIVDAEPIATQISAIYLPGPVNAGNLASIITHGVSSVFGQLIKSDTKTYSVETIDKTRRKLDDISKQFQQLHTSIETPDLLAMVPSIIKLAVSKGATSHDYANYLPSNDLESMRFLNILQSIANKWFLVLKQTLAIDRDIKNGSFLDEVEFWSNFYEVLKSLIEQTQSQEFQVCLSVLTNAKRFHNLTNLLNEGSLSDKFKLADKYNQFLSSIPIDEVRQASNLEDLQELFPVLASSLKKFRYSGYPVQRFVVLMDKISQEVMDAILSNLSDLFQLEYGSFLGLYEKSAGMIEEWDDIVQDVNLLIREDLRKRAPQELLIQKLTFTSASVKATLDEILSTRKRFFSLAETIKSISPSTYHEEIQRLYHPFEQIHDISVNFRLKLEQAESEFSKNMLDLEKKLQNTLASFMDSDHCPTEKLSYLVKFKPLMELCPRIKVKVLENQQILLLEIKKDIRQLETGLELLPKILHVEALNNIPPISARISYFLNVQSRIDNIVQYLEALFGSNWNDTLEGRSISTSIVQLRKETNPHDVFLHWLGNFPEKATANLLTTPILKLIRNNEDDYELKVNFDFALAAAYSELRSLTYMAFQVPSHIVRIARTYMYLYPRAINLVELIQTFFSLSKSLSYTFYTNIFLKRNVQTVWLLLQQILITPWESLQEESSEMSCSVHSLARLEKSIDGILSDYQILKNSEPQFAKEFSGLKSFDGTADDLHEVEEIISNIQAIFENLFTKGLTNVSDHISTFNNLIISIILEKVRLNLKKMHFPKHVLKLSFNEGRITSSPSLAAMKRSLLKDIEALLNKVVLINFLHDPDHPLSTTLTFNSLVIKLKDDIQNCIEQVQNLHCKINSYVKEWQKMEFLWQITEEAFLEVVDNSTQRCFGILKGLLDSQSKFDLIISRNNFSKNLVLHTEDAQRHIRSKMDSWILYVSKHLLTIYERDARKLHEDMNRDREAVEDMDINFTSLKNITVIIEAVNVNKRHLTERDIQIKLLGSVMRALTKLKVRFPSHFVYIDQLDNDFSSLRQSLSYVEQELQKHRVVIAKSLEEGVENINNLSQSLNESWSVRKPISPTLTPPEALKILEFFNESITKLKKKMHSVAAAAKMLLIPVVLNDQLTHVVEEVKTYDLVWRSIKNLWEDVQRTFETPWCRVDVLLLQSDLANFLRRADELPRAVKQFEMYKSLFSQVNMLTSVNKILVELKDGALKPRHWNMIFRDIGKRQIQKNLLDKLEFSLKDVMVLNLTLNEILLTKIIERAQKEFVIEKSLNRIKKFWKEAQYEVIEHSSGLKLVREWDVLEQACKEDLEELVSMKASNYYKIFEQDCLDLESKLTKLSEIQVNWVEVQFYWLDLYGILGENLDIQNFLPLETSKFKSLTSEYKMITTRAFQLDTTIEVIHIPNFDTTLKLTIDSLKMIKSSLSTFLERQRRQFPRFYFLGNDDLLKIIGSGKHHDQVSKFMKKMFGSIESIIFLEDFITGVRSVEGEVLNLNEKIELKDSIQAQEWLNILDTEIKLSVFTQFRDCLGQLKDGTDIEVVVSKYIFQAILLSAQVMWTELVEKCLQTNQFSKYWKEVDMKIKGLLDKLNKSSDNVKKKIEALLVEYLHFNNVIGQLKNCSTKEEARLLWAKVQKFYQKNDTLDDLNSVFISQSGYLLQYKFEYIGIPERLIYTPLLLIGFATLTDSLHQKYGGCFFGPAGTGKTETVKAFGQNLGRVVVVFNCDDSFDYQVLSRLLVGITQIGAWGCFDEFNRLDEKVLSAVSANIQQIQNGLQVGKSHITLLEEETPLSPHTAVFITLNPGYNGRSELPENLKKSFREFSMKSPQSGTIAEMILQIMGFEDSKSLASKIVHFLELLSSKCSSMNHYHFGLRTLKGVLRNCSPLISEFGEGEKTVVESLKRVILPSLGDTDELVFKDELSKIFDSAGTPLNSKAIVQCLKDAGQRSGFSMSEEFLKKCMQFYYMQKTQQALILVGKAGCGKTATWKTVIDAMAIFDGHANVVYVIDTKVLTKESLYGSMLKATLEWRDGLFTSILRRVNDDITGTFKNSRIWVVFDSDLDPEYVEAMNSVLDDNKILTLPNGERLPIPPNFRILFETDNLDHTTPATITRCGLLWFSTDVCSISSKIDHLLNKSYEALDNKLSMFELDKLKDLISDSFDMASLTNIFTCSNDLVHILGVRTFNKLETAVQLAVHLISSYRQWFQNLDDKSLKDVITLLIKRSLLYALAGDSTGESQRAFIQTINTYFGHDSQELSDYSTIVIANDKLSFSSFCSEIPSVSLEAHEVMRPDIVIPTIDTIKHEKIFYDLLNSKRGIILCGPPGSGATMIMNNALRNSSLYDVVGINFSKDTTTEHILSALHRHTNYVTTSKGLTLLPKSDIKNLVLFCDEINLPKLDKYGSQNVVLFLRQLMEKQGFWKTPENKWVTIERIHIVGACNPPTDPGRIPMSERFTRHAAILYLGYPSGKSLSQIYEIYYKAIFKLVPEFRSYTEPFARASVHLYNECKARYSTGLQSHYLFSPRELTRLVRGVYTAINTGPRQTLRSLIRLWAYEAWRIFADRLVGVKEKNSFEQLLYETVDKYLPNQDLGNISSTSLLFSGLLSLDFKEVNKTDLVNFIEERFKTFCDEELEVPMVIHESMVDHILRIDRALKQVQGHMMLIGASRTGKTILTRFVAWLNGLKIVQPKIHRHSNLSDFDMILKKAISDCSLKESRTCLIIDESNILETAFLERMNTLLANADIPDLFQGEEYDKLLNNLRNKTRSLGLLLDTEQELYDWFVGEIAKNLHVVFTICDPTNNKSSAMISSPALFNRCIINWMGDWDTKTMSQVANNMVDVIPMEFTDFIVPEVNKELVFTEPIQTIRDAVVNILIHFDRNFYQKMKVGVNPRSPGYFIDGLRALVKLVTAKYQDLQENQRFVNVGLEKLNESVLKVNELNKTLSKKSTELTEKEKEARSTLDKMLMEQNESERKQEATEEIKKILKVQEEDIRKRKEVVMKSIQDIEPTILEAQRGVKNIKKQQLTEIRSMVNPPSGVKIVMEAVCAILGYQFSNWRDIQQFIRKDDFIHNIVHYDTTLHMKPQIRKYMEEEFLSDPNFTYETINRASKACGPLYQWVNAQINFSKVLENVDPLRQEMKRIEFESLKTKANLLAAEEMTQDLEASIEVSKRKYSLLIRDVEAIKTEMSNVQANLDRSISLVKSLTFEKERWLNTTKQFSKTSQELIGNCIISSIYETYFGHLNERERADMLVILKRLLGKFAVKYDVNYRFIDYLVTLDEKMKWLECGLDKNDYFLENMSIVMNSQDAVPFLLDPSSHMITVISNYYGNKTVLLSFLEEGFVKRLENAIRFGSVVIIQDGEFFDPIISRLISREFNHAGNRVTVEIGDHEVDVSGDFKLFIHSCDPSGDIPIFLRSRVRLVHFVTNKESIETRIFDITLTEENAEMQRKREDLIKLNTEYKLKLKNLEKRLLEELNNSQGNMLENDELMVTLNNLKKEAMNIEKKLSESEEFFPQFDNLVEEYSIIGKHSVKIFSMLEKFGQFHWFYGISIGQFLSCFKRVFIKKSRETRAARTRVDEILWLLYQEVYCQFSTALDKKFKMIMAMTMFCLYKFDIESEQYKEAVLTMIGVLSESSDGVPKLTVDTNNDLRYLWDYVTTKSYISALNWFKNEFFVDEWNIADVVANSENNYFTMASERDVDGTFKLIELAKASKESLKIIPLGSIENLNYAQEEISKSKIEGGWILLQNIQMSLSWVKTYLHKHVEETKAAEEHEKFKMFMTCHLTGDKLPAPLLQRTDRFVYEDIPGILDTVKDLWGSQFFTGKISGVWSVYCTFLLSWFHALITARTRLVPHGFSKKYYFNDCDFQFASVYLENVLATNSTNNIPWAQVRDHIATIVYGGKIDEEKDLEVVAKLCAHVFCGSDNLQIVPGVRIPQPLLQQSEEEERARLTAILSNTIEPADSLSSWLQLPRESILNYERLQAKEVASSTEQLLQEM
T1 sequence (P40960 whole entry, chain 2 of 4): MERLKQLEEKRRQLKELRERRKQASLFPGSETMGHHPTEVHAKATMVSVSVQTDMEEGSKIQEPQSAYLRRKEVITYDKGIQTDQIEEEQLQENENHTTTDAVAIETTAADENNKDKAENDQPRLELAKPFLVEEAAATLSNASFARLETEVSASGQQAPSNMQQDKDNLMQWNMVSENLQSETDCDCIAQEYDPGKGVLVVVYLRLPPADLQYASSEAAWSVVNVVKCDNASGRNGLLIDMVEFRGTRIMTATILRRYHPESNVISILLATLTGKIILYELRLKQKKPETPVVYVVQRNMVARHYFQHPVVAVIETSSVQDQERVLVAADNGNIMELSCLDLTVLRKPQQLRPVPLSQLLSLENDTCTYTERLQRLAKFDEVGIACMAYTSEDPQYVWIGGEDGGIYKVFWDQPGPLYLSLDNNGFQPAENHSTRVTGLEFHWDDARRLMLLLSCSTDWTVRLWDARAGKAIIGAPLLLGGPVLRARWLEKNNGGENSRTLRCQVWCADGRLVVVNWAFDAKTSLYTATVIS
T1 sequence (Q04949 whole entry, chain 3 of 4): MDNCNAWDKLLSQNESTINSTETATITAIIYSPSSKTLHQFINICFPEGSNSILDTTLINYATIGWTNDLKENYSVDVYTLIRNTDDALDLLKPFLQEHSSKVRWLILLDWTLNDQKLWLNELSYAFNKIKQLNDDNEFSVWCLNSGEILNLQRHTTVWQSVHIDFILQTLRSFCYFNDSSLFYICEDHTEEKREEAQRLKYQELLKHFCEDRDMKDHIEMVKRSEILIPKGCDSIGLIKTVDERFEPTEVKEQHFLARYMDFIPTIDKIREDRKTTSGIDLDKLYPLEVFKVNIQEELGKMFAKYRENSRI
T1 sequence (Q02647 whole entry, chain 4 of 4): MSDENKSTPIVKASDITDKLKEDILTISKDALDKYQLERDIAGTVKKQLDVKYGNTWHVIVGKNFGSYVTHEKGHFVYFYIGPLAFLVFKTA

[2] = target: full-length dynein complex AAA3^WB (E2488Q) (yeast, UniProt P36022 1-4092; P40960 1-533; Q04949 1-312; Q02647 1-92, E2488Q)
[3] = target: T1, full-length dynein complex AAA3^WA …; remark: listed apart in the source
[4] = target: T1, full-length dynein complex AAA3^WA …; remark: listed apart in the source

Binder	stoichiometry N [1]	stoichiometry N [2]	stoichiometry N [3]	binding result [4]
B1	2 Pac1 dimers per dynein complex	1 Pac1 dimer per dynein complex and 2 Pac1 dimers per dynein complex	1 Pac1 dimer per dynein complex	
B2				binds
